For this experiment, the target named is T1, GST-tagged ARK5 wild type (AMPK-related protein kinase 5) (human, UniProt O60285 1-661).
T1 construct: ARK5 (aka NUAK1), UniProt ID O60285; Printed both as GST-ARK5 and ARK5-GST, so the end of the tag is not clear; also called NUAK1; GST-ARK5; source: U2OS, transfected, in lysate; U2OS, transfected, purified (Pierce GST spin purification kit)
T1 sequence (looked up): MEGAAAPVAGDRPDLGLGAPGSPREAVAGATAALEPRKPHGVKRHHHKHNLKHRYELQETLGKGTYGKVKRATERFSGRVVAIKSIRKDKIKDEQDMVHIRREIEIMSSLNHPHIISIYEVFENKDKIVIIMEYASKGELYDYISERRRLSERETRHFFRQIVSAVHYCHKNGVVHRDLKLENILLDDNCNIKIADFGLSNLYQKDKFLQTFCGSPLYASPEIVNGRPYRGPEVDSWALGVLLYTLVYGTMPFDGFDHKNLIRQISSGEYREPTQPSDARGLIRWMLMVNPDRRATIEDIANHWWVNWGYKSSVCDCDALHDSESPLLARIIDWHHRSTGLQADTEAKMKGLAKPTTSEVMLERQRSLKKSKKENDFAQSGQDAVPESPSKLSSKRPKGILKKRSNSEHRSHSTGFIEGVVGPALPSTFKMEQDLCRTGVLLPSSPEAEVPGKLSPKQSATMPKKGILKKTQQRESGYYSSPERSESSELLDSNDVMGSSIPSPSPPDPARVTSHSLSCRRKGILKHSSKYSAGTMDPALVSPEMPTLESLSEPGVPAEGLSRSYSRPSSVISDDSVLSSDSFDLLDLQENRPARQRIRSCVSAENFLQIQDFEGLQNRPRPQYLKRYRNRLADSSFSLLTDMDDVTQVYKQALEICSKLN
The experiment is described as follows: co-IP; in vivo co-IP: U2OS cells cotransfected with GST-ARK5 (WT or KD) and FLAG-hnRNP A1 (WT, fragments or mutants); lysate in co-IP buffer (25 mM Tris-HCl pH 7.4, 150 mM NaCl, 0.5% Triton X-100), GSH Sepharose beads overnight at 4 °C, immunoblotting. Particulars: partners not purified.

B1: FLAG-tagged hnRNP A1 wild type (heterogeneous nuclear ribonucleoprotein A1) (natural protein, human, UniProt P09651-2 1-320, looked up)
chain: MSKSESPKEPEQLRKLFIGGLSFETTDESLRSHFEQWGTLTDCVVMRDPNTKRSRGFGFVTYATVEEVDAAMNARPHKVDGRVVEPKRAVSREDSQRPGAHLTVKKIFVGGIKEDTEEHHLRDYFEQYGKIEVIEIMTDRGSGKKRGFAFVTFDDHDSVDKIVIQKYHTVNGHNCEVRKALSKQEMASASSSQRGRSGSGNFGGGRGGGFGGNDNFGRGGNFSGRGGFGGSRGGGGYGGSGDGYNGFGNDGSNFGGGGSYNDFGNYNNQSSNFGPMKGGNFGGRSSGPYGGGGQYFAKPRNQGGYGGSSSSSSYGSGRRF
notes: hnRNP A1, full length, printed length 320 aa (residues 1-320); The printed residue numbers (1-320) fit the 320-residue isoform; also called FLAG-hnRNP A1 WT; A1-WT; source: U2OS, transfected, in lysate; U2OS, transfected, purified separately
B1: the binding result is “binds”.
